The values below come from patent publication US20170362327A1.

The target in this experiment is human TrkA on the surface of TF-1 cells (human), P04629. Description: cell-based or functional assay.
Chain of human TrkA on the surface of TF-1 cells (human), P04629 (P04629 33-796): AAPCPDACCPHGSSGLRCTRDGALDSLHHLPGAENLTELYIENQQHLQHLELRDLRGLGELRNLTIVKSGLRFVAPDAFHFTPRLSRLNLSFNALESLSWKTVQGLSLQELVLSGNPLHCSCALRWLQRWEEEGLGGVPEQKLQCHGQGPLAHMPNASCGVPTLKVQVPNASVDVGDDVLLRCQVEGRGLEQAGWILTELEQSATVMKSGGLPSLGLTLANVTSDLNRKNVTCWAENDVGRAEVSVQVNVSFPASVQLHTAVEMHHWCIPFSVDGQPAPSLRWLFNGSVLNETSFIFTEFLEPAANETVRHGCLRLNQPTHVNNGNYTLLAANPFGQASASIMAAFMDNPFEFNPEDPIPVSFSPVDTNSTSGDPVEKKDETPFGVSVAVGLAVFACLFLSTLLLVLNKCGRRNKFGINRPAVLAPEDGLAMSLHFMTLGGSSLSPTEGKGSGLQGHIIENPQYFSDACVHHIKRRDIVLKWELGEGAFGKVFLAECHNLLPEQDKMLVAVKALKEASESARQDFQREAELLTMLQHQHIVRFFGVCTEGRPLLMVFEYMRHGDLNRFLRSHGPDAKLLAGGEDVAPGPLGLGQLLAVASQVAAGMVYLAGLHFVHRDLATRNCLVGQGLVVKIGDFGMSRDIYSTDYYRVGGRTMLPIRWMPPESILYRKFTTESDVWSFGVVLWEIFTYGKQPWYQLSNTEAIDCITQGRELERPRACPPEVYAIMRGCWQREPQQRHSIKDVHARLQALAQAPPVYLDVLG

B1: MNAC13 mouse antibody (antibody, mouse IgG1, kappa)
heavy: EVKLVESGGGLVQPGGSLKLSCAASGFTFSTYTMSWARQTPEKRLEWVAYISKGGGSTYYPDTVKGRFTISRDNAKNTLYLQMSSLKSEDTALYYCARGAMYGNDFFYPMDYWGQGTSVTVSSKTTPPSVYPLAPGSAAQTNSMVTLGCLVKGYFPEPVTVTWNSGSLSSGVHTFPAVLESDLYTLSSSVTVPSSPRPSETVTCNVAHPASSTKVDKKIVPRDCGCKPCICTVPEVSSVFIFPPKPKDVLTITLTPKVTCVVVDISKDDPEVQFSWFVDDVEVHTAQTQPREEQFNSTFRSVSELPIMHQDWLNGKEFKCRVNSAAFPAPIEKTISKTKGRPKAPQVYTIPPPKEQMAKDKVSLTCMITDFFPEDITVEWQWNGQPAENYKNTQPIMNTNGSYFVYSKLNVQKSNWEAGNTFTCSVLHEGLHNHHTEKSLSHSPGK
light: QIVLTQSPAIMSASLGEEITLTCSASSSVSYMHWYQQKSGTSPKLLIYTTSNLASGVPSRFSGSGSGTFYSLTISSVEAEDAADYYCHQWSSYPWTFGGGTKLEIKADAAPTVSIFPPSSEQLTSGGASVVCFLNNFYPKDINVKWKIDGSERQNGVLNSWTDQDSKDSTYSMSSTLTLTKDEYERHNSYTCEATHKTSTSPIVKSFNRNEC
As to B1, the TF-1 cell proliferation assay IC50 (beta-NGF induced proliferation) came out at 0.23 µg/mL.
